# Variants at the floor of the assay were thinned out.
# B1: TPR 5TU (parent)
# chain: GGAUCUUCUCGAUCUAACAAAAAAGACAAAUCUGCCACAAAGCUUGAGAGCAUCUUCGGAUGCAGAGGCGGCAGCCUUCGGUGGCGCGAUAGCGCCAACGUUCUCAACUAUGACACGCAAAACGCGUGCUCCGUUGAAUGGAGUUUAUCAUG
# Variants of: B1
# Assay: polymerase ribozyme fitness, log enrichment relative to wild type (log ratio); higher = more active; in vitro selection for triplet polymerase activity
# In short: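 Mutant libraries for each subunit of a heterodimeric triplet polymerase ribozyme were made by PCR and then transcribed. Each library underwent one round of in vitro selection in triplicate: annealing with a biotinylated primer, the partner subunit and triplets, frozen incubation at −7 °C, gel excision of extended constructs, streptavidin-bead capture and RT-PCR. Input and output libraries were Illumina-sequenced, and only genotypes with ≥10 input reads and ≥1 read per output were kept. Fitness is the logarithm, base 2, of genotype enrichment over wild-type enrichment, computed from inverse-variance-weighted replicate averages.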
row,Variant,polymerase ribozyme fitness (log ratio)
1,C54U C57A,-0.253
2,C54U G81U G83U G152U,-4.17
3,C54U C95G A98G,-2.01
4,C54U C79U G92U C95U G141C,-3.77
5,C54U U82G C95A A119G,-2.04
6,C54U C87G A142C,≤ -4.2
7,C54G U109C C116U C131U A147U,-1.86
8,C54U G86U,-1.78
9,C54U G86A,-1.18
10,C54U G59C A60G A122U,0.186
11,C54U C63A C149U,-1.67
12,U55A A91C,≤ -4.2
13,U55A A73U C93A A122U,-3.55
14,C54U A60G C95U,-0.803
15,C54U G94A,-0.351
16,C54U G94C,-1.15
17,C54U G83U C85A U90G,≤ -4.2
18,C54U C75G G81C U127A,≤ -4.2
19,U55A A66G G92U A119C,≤ -4.2
20,C54U C93U C96G U135A,-3.57
21,C54U G65U A73U A91U C108G,≤ -4.2
22,C54U A91U U102G,≤ -4.2
23,U55A A66U G74A C75A C79G G88C C95G A137U,≤ -4.2
24,C54U G86U C93A A97U A120G,-1.29

row,Variant,polymerase ribozyme fitness (log ratio)
1,C54U G58A,0.498
2,C54U G58C,-0.858
3,C54U U77C G88A C96U A106C,≤ -4.2
4,C54U A73G,-0.166
5,C54U G124C,-0.768
6,C54U A91U,≤ -4.2
7,C54U A91C,≤ -4.2
8,C54U U101G,-0.483
9,C54U C57U G83C,-1.34
10,C54G U82A,-1.98
11,C54G U82G,-0.687
12,C54U G84A A110U,≤ -4.2
13,C54U C87U C99U U135C,-3.26
14,C54U G136A,0.306
15,C54U G59U,0.271
16,C54U G74C,-3.95
17,U55A A60U C118G A119C,-0.427
18,C54U U148A,-3.74
19,C54U C95A G126U U148A,≤ -4.2
20,C54U A60U C87U G94U U101G U109C C116U C118U G152C,≤ -4.2
21,C54U U56A G86A U102A C116A,-2.55
22,C54U A115G,-3.13
23,C54U C63G G67C G143A,≤ -4.2
24,C54U C93U U144C U146G,-3.87

row,Variant,polymerase ribozyme fitness (log ratio)
1,C54U C99G U101G A142U,-3.57
2,C54U C75G U78C C79A G80U,≤ -4.2
3,U55A A106U A107U,-4.11
4,C54U U56A G81A C95A U101C,-1.35
5,C54U G59C A97U,-0.658
6,C54U C85A,-2.3
7,C54U C85G,-2.49
8,C54U C76U C85G,-1.18
9,C54U C75G G80C U82A C87U C99G,≤ -4.2
10,C54U U55A C95G C96A,-3.07
11,C54U U56C C93U A150U,0.278
12,C54U A64U G83A C85A,≤ -4.2
13,U55A A66C U77A C87A,≤ -4.2
14,C54U U55C C72U C87A,≤ -4.2
15,U55A A89U U102G,≤ -4.2
16,U55A A64C C85U U146G,≤ -4.2
17,C54U G81A C95U,-0.559
18,C54U C149U,-0.259
19,C54U C57U C79A C85U C93G A107G C123G,≤ -4.2
20,C54U A150G,-0.995
21,U55A A73C C87U G92A,-2.04
22,C54U A121U,0.0158
23,C54U C85U C129U,-0.134
24,C54U C87U G92C,-0.365

row,Variant,polymerase ribozyme fitness (log ratio)
1,C54U C57G C87A G128A,≤ -4.2
2,C54U C87G C93U C125A G133A A142C,≤ -4.2
3,C54G U101G C118U,-2.4
4,U55A A97U,-0.916
5,U55A A97C,0.466
6,C54U C76U C93G A150G,-4.08
7,C54U C114A A137U,-3.59
8,U55A A73G A89G G136A,-0.934
9,C54U C76A,-0.561
10,C54U U130G,-3.73
11,C54U U55G G58A A64U G88A C95G U127A,≤ -4.2
12,C54U G94C G124A,-1.04
13,C54U,-0.314
14,C54U U56C,-0.57
15,C54U C96A C105G G124U,-3.42
16,C54U U61A G84U C108G G140U,≤ -4.2
17,C54U A89G C95A U148G,-4.18
18,C54U C125G,-1.05
19,C54U U55G C95A A119C U127G A142C,≤ -4.2
20,C54U A91G G128U C131U,-3.53
21,C54U A97C,-0.294
22,C54U A110C C114U A121U,-4.15
23,U55A A91U C96A C125G A142G,≤ -4.2
24,C54U G59U G74A,-3.62

row,Variant,polymerase ribozyme fitness (log ratio)
1,C54U G67U G86U C95A,≤ -4.2
2,U55A A73G,-0.446
3,C54U G84A U146G,-1.56
4,C54U C57A C75U A91G,-3.62
5,C54U A64C U90G U139G G140A,≤ -4.2
6,C54U G65A C85U A89G U146G,-4.13
7,C54U C85A C96U A97C A98G A121U,≤ -4.2
8,C54U G84C G100C C108A A113U G141U,≤ -4.2
9,C54U G141A U151G,≤ -4.2
10,U55A A64C,≤ -4.2
11,U55A A73U C75U C93U G100A U139A U144G,≤ -4.2
12,C54U G65U G81A C93U A97U,≤ -4.2
13,C54U C93G,-3.72
14,C54U C93U,-1.99
15,C54U G71U C85A C96G G133C U145G G152A,≤ -4.2
16,C54U U77C G84A U109C,≤ -4.2
17,C54U U55A C76A A91U C95A C103A C131G A138U,≤ -4.2
18,C54G U102C U144A,-3.91
19,C54U U82C C95A G141U,-2.99
20,C54U G84A C105A,-0.565
21,C54U C96A C105U,0.0167
22,C54U G70A G83A U90A G143U,≤ -4.2
23,C54U A138G,-3.19
24,C54U C99U,-0.322

row,Variant,polymerase ribozyme fitness (log ratio)
1,C54U U56A C118U,-0.674
2,C54U C57G G84U C85U C132U,-3.94
3,C54U A64G G68A U77C G83A G88U U90G C132U U139G,≤ -4.2
4,C54U U78A G86U U104C C105A U130G C132A G136A,≤ -4.2
5,C54U G88A A89U C95A C99U U146G U151A,≤ -4.2
6,C54U G84A U102G,-4.14
7,C54U G68C C69G G71U G140A U144G,≤ -4.2
8,C54U C57G G84U C96A,-3.23
9,C54U A107U U111G U135A U146C,-4
10,C54U C96U C118U,-0.868
11,C54U U146G,-0.826
12,C54U U146A,-0.881
13,C54U A106G,-0.0717
14,C54U G84C C93U U144C,≤ -4.2
15,C54U G92C,-1.07
16,C54U G80A,-0.56
17,C54U C87U A115U,-1.85
18,C54U C96U U144G,0.217
19,C54U U56A G71A A107C A150C,≤ -4.2
20,C54U G88C,≤ -4.2
21,C54U C69A U144C,-3.89
22,U55A A60G,0.676
23,U55A A60C,-4.18
24,C54U C85G C87G,≤ -4.2

row,Variant,polymerase ribozyme fitness (log ratio)
1,C54U C95G,-1.07
2,C54U C95U,-0.851
3,U55A A91G U134A,-4.01
4,U55A A60U G84U C116G A119U,-2.63
5,U55A A60G C69U G92U A147U,-0.244
6,C54U U82A G83A A98G,-1.89
7,C54U C93G U145A,≤ -4.2
8,C54U G58C C85A,-2.42
9,C54U C105A C131G,≤ -4.2
10,C54U G58A G92A U145A,-3.35
11,C54U C72U,-0.468
12,U55A A106C C125G,-1.63
13,C54U U134A,-2.84
14,C54U C87U,-1.08
15,C54U C87G,≤ -4.2
16,C54U G84A A97U,-1.27
17,C54U C85U C95A,-1.84
18,C54U U55G U82G,-1.38
19,C54U U82A C105U A119G,0.194
20,C54U G143A,-0.736
21,C54U U56C A73U,-1.06
22,U55A A60G A137C,-3
23,U55A A60G C76G C87G C96U U139A G140C,≤ -4.2

# — the RNAGym collection of RNA variant scans (doi:10.1073/pnas.2313332121)
